Source: PMC10665427, “The heat shock protein LarA activates the Lon protease in response to proteotoxic stress” (Nature Communications, 2023)

B1: N-terminally 3xFLAG-tagged LarA [C. crescentus] / Lon, endogenous [C. crescentus (endogenous in WT cells)] (parent complex)
chain 1: MTPSTQHSRPLTSEAFAALGAPALVYVRPIKAAEILADAPEGVEDLDLSPDQTLYAVCRADGERLAVLIDRDTAIAAALAHELAPVSVH
chain 2: MSELRTLPVLPLRDIVVFPHMVVPLFVGRDKSVRALEEVMRGDKQILLVTQKNSADDDPAPGDIFEVGVLATVLQLLKLPDGTVKVLVEGKARAAVVSFTDQESYYEAQIGEVSEDDGAGPEAEALSRAVVEQFENYVKLNKKVPPEALASIPQIAEPGKLADSIAAHLSVKIGDKQNLLEIFDVVKRLEKVFALMEGEISVLQVEKKIRSRVKRQMEKTQREYYLNEQMKAIQRELGDPDDARDELIDLEKRIKKTKLSKEARTKAESELKKLRNMSPMSAESTVVRNYLDWLLSIPWGKAKTKKIDLVESEGILDADHYGLEKVKERILEYLAVQARTNSLKGPILCLVGPPGVGKTSLGKSIAKATGREFVRMSLGGVRDEAEIRGHRRTYIGSMPGKVVQSMKKAKTTNAFVLLDEIDKMGSDYRGDPASALLEVLDPSQNSTFGDHYLEVDYDLSQVMFVTTANSLNMPQPLLDRMEIIRIPGYTEDEKLEIAKRHILPKLAKDHGLKPAEFIVPDKAIRDLIRYYTREAGVRSLERELGALARKTVRDLAREKVASITIDDERLAKYAGVKKYRYGETDEVDQVGIVTGLAWTEFGGDILTIEAVKMPGKGRMQITGNLKDVMKESIAAANSYVRSRALQFGIKPPVFEKTDVHIHVPDGATPKDGPSAGIAMALAMVSVLTGIPIRKDIAMTGEITLRGRVTAIGGLKEKLLAALRSGVKTVLIPQENEKDLADVPQTVKDGLEIIPVSTVDEVLKHALTGPLTPVEWNEAEEPITTSAKKDDGDSDAMLTH

Variants of: B1
Assay: co-immunoprecipitation (α-FLAG IP, anti-Lon immunoblot quantified); WT cells, Pxyl-3xFLAG-larA variants induced one hour with xylose prior to cell lysis and IP; n = 3; parent: 4.5; read off a plot

First: chain 1 MTPSTQHSRPLTSEAFAALGAPALVYVRPIKAAEILADAPEGVEDLDLSPDQTLYAVCRADGERLAVLIDRDTAIAAALAHELAPASAH [chain 1 V86A, chain 1 V88A]
Second: chain 1 MTPSTQHSRPLTSEAFAALGAPALVYVRPIKAAEILADAPEGVEDLDLSPDQTLYAVCRADGERLAVLIDRDTAIAAALAHELAPVSDD [chain 1 V88D, chain 1 H89D]
The response of the first is higher: ~1.7 relative Lon level (vs VC = 1) for the first, ~1 relative Lon level (vs VC = 1) for the second.
